Publication PMC3765780, “Pyocyanin-induced mucin production is associated with redox modification of FOXA2”

Target: T1, FOXA2 (immunoprecipitated from control NCI-H292 cells) (Homo sapiens? (NCI-H292 cells), UniProt Q9Y261 1-457)
T1 sequence: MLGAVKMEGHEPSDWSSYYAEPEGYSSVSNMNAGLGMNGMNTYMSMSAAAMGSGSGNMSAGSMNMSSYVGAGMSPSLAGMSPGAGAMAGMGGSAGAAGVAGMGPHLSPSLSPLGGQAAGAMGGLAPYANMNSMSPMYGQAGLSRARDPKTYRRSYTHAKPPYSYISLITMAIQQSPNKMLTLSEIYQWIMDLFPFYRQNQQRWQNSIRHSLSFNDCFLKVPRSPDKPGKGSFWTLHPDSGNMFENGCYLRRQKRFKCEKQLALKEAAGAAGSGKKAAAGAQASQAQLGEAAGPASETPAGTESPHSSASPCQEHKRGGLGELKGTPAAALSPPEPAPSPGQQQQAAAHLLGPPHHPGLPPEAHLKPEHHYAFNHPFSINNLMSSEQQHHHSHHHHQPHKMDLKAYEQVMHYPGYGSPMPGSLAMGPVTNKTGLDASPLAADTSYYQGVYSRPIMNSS
Test: EMSA; untreated control cells; inhibited by 20-fold unlabeled probe and by anti-FOXA2 antibody; 10 mM Hepes pH 7.9, 1 mM EDTA, 5 mM MgCl2, 10% glycerol, DTT (printed '0.5 m MDTT', probably 0.5 mM), 1 mg/ml BSA, 1 ug poly(dI-dC); 2.5 ug FOXA2; 20 min, room
Details: protein: native; blunt

B1: MUC5B promoter FOXA2 site probe (dsDNA)
DNA 1: CCTCCCCGAGAGCAAACACACGTGGCTGGA
DNA 2: TCCAGCCACGTGTGTTTGCTCTCGGGGAGG
B1: binds.
